Reference: the supplement of paper PMC12764529
± gives the half width of the 95% confidence interval.

Assays:
[1] = folding stability dG unfold from chymotrypsin proteolysis; higher = more stable
Experimental: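 Folding stability of de novo designed mini-proteins (<80 aa, no Cys; designed by TrROS, TrMRF, ProteinMPNN and the joint model) was measured by cDNA display proteolysis with trypsin and chymotrypsin. Each protease was used at 11 concentrations in a threefold dilution series plus a no-protease condition. K50 was inferred by Bayesian fitting of sequencing counts, and dG unfold was derived against a sequence-predicted unfolded-state K50 (Tsuboyama et al. method). Sequences shown include variable-length N-terminal GS-type padding (SAGGSAGG...) inside a display construct carrying a PA tag. Rows were kept only if the AF2 dimer inter-PAE was >15, to exclude likely homo-oligomers.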

[2] = folding stability dG unfold (combined trypsin and chymotrypsin); higher = more stable
Procedure, shortened: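 How resistant each design was to proteolysis was captured as K50, inferred by Bayesian fitting of sequencing counts. Unfolding free energy was then derived relative to a sequence-predicted unfolded-state K50 and a shared folded-state K50, per protease or combined. Digestion used trypsin and chymotrypsin at 11 threefold-diluted concentrations plus a no-protease condition, on mini-proteins under 80 residues without cysteine in a PA-tagged cDNA display construct. Designs were kept only when AlphaFold2 dimer inter-PAE was above 15.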

Sequence | folding stability dG unfold [1] [kcal/mol] | folding stability dG unfold [2] [kcal/mol]
SAGGSAGGSAGGAMDLPPSREAEIKLPNGETIRIFRPPDGSITLEFYDKGGKKTKIIPNSAGGSAGGSAGGS [r10_150_JUSTAS] | -0.124 ± 0.17 | < -1
SAGGSAGGSAGGTLIKTSDDTIVIPIGDPEEAEKAAEEIKAKLGDVDLKVEILSPEELRGSAGGSAGGSAGG [r7_645_JUSTAS] | 0.487 ± 0.032 | 0.13 ± 0.14
SAGGSAGGDHVQIEFPIWRMKEVERNPDNGEPRMDMEPIEITIWYPPDDPEKAKKIADEILDFISAGGSAGG [r6_280_TrROS] | 0.891 ± 0.14 | 0.409 ± 0.18
SAGGSAGGMTVTVEIPLPPDVPIEEVKEKVKESGYPPTKIEYDPATGKATITLSPEAKEFLEKKSAGGSAGG [r6_307_JUSTAS] | -0.425 ± 0.11 | < -1
SAGGSAGGSGYPGLPMPVLRVRFAGDPEPVFIPVPADRPDVARAAAEELRALRPDVPVELELGSAGGSAGGS [r12_601_TrMRF] | 0.823 ± 0.045 | 0.107 ± 0.057
SAGGSADFQVEVERDPNNGYYEIEVRYPNGMPVEIEYNPKKNKIEVKVTPGFPPSMAENAAEELLDSAGGSA [r15_511_TrROS] | 0.136 ± 0.058 | -0.535 ± 0.49
SAGGSAGGSAGKEPILAIPNPEFPDVVIIKTKDGVRAVPVEELKELDIDAVMSLEEALASSAGGSAGGSAGG [r17_88_TrMRF] | 0.731 ± 0.067 | 0.174 ± 0.2
SAGGSKEEIEKKLKELAEKLGVEVEDIEIKPLSNGKYIAVVKFKDNPNVYAVYEFDGDEIKIVEIKPSAGGS [r8_432_TrMRF] | 5.04 ± 0.26 | 5.15 ± 0.57
SAGGEDFTIRTRSPNGEEQKFPFKVDNVEIEPENNHYSIHIKDGKKLTIPPGGIDDIEPDDIKDWIKDSAGG [r13_925_TrROS] | -0.0875 ± 0.29 | -0.373 ± 0.21
SAGGSALTAKEARELVRNYAREHNPDYKVKGIEVERLPDKWVHADIEVRPPENPGQEHEWSIWIPYSAGGSA [r15_627_TrROS] | -0.418 ± 0.33 | -0.986 ± 0.31
SAGGSAGGSMPEKKFKAEVVEEIEDPKTGKKFYFLKDTKQIFVENKDGSRTAITIDEDKLEIVSAGGSAGGS [r12_420_TrROS_Hall] | 0.433 ± 0.098 | 0.0252 ± 0.15
SAGGSASSEFNTDKKPPPLPKKSKVINLNIPTPPDETEEEAKKKAEEIANKLKEEGKYGEVTVKIESAGGSA [r15_450_JUSTAS] | 0.756 ± 0.17 | 0.5 ± 0.41
SAGGSAGGSAGGMIWIPESELSKLPESFKNFKILKKTPLTLPHPSKKNKPVVLVEIEKKESAGGSAGGSAGG [r7_237_JUSTAS] | 0.696 ± 0.23 | 0.122 ± 0.53
SAGGSASSGSMPLTKETDPLDGAGEVERVLYEDGTVVEIVTGADGKPTLRTRKVEIEPPEPLLLLRSAGGSA [r15_478_JUSTAS] | -0.501 ± 0.63 | < -1
SAGGGLARELFEAENLPVVVEEEERDGKPVLRLVVDAGDKPLVFESDGEDVERAVREAARELGLPGLSAGGS [r8_226_TrMRF] | 0.674 ± 0.085 | 0.337 ± 0.15
SAGGSAGGSMTVTLSYPDGSTVTRPLEGKSLEEAIAALPEDVTEVQVTVLEGSTPVTRTVPRPSAGGSAGGS [r12_767_JUSTAS] | 0.731 ± 0.023 | 0.344 ± 0.054
SAGGMKLTLTFTETSVLPDGTPVTTTSTTPLSPDVPVEEVAAALAETNPDVTVTVHEPSTGSTRTLRTSAGG [r13_663_JUSTAS] | 0.0497 ± 0.13 | -0.351 ± 0.14
SAGGSAKIEIEWNPENGMVRVKAEYPNDGKKKEHTFNPGDSPKQLADDINQEFKKPVEIDEIEWYPSAGGSA [r15_544_TrROS] | 0.683 ± 0.04 | 0.153 ± 0.44
SAGGSAGGSAGPRVKFRFPGQEHTIPPGRRVYFGNGKKFDPGEPLDDIPPDNITPVEIEPSAGGSAGGSAGG [r17_511_TrROS] | -0.297 ± 0.18 | -0.609 ± 0.15
SAGGSAGEAEELAEAREAALRAALPPGTVVEVEVEVRVEREGDREEERVEVRVTVREPGTDRLLLESAGGSA [r15_915_JUSTAS] | 0.13 ± 0.18 | -0.173 ± 0.57
SAGGSAGGSALLEEAGALAAARGWDVEVSPGPVVTVRSPAGREVTITREGDELTVTERELPGDRSAGGSAGG [r6_523_JUSTAS] | 0.466 ± 0.18 | -0.308 ± 0.35
SAGGSAGGSAGIIEFPFPLNEAKKLAENLPPGFRPVNVEPDPDNDRIWVIIQVVPPKKGKSAGGSAGGSAGG [r17_98_TrROS] | -0.992 ± 0.73 | < -1
SAGGSAGGSAGGSGRVEIELEFKLENGFYVRIKAEIEFEEDGKIRIKVEIELLPEELEESAGGSAGGSAGGS [r4_297_TrROS_Hall] | 3.67 ± 0.34 | 3.89 ± 0.41
SAGGSAGGSAGMYDVGFIEAPKDTAYIKFPEINYIAEIKLDPKNGGFSLDEIKLYPLNTKSAGGSAGGSAGG [r11_352_TrMRF] | 0.521 ± 0.067 | 0.107 ± 0.11

Sequence | folding stability dG unfold [1] [kcal/mol] | folding stability dG unfold [2] [kcal/mol]
SAGGSAGGSAPKFDLRPEVFPLEDDSFLFVSRLLDPDKRLLTLVKVPPNGGLELGDVLLLDSAGGSAGGSAG [r3_165_TrMRF] | -0.176 ± 0.3 | -0.829 ± 0.33
SAGGSAGGSAGGKKEREFKFPGAPIQAPVERNPANGKLKIDVEVTGDNPDWAKRLADAFSAGGSAGGSAGGS [r10_582_TrROS] | -0.513 ± 0.56 | < -1
SAGGGENAPKPIVEPKLVSTFLIDVEPDTYTPEEIAELFKEATGYEIEEVEVEELPDDNTVLVTVVAGSAGG [r13_457_TrMRF] | 0.472 ± 0.24 | 0.0888 ± 0.22
SAGVEVTSTSVDYTLDSSSPSPLRSSASPVRSAPPVEERPVELVDPSGERRLVTLKEIDPEKGGRVLSGSAG [r5_735_JUSTAS] | 0.229 ± 0.26 | 0.185 ± 0.24
SAGGIRLEIPPNWTPEEAKEQAEELANFFAKKGPMEVEDIEYKRDEKDGNPMIVGEIRDPKNGKEWTISAGG [r13_669_TrROS] | -0.127 ± 0.3 | -0.754 ± 0.68
SAGTTTITVPASEASEEEVQALIDEIEAANPHLKVKEVKETVVPLPTPKPVRLRTIIINAELPLPPELLSAG [r5_835_JUSTAS] | 0.447 ± 0.18 | -0.132 ± 0.47
SAGGSAGGSAGGMLVTETKPLPTPRTVATVVLLSTEEAPLPSGVLVRRETTEVKLVELISAGGSAGGSAGGS [r10_718_JUSTAS] | -0.503 ± 0.61 | < -1
SAGGSAGGSAKNTASLKKDDGFVAYNPKTGKYVAEVEVVKDDKDNIDLPLPNGDEVEIDAVGSAGGSAGGSA [r18_363_TrMRF] | -0.54 ± 0.42 | -0.846 ± 0.44
SAGGSAGGSPAIRVERDPETDVLLAEIGHPDGVPALARISPATGTVTVLEGGKLVEVPLPEIGSAGGSAGGS [r12_650_TrMRF] | 0.627 ± 0.018 | 0.113 ± 0.13
SAGGSAGGSAGGTIQWDPANGRIKITNPNGKKKTIPIPPDDPEEFLKELKDNGIDRIEPVSAGGSAGGSAGG [r7_139_TrROS] | 0.964 ± 0.075 | 0.38 ± 0.25
SVPVTDETLYPDPSNALPISLVSQLGPDGSSVTTSITLPGRSMTQSVDPSTGRVTGNYPGTGLSSTVTSVPS [r1_125_JUSTAS] | 0.348 ± 0.051 | 0.0698 ± 0.11
SAGGSAGHMIEKVTTTSPDNTTTTVSLTPPDAPLDIKLPNGASATQTPLPGGRLRVTTTTTTPAAASAGGSA [r15_523_JUSTAS] | 0.841 ± 0.062 | 0.338 ± 0.21
SAGGSAGGSAITIKELAKEGYTIEIRPPDGKKETFKPGDSVDDPAEEFDLPPNWRIEIRPPSAGGSAGGSAG [r3_216_TrROS] | -0.382 ± 0.3 | < -1
SAGGSAGGSAGYKPDPDGQYTQEMRLPREPPRIRITIPMSPNDPDKAQKFINNLAEEFGISAGGSAGGSAGG [r17_501_TrROS] | -0.0614 ± 0.64 | -0.32 ± 0.32
SAGGSAGGNNPPKTREIWIPPDDPDDLKDLKIDGPPGDTHHFRNPGGPYRITVTDGDPKVEPWGSAGGSAGG [r6_551_TrROS] | -0.301 ± 0.49 | < -1
SAGGSAGGSPWQVTHETVTLPEYDPSSDKPIREVTVTVTTETDPTTGATTVSLNLPSDFLRELRSAGGSAGG [r6_206_JUSTAS] | 0.291 ± 0.14 | -0.123 ± 0.22
SAGGSAGGSAGKKKITIDYEEIREKFGLPPDDIDNMSMSRVMNYAKPLAKEGKIDEIEISSAGGSAGGSAGG [r11_80_TrROS] | -0.291 ± 0.53 | < -1
SAGPLVITVEETDGTVTITIYDAETGEKIAEFTFPKGAEVTIEDGYITIRNKETGETFVFKLPDGVKPSAGG [r19_4_TrROS_Hall] | 6.34 ± 0.27 | > 6
SAGGMESSVLSVSTITRSAPPGSPLASTTATVTVTKTDGRTIVTVPATGVVYTVNPDGTVTADPVDPPSAGG [r13_721_JUSTAS] | -0.515 ± 0.4 | < -1
SAGGNRIPIPVKEIANNLNEEGWEIDEVEIYNPDDGEPKGTIPPGDPIEIPPNAPNMTIKPKIKPRKSAGGS [r8_243_TrROS] | 0.0841 ± 0.064 | -0.169 ± 0.13
SAGGSAGGSAGMIQIDQDPNNGNYKVKIRNPDGKPREFNVDSPDELEDAADKNGFPAEPISAGGSAGGSAGG [r11_1049_TrROS] | -0.0704 ± 0.14 | -0.512 ± 0.41
SAGGSAPPEVVEVPPVELPDYTVSPPRFAPEPTLRERTATPPDGPEFSVTTRIDPETGVPEVVVAASAGGSA [r15_84_JUSTAS] | 0.718 ± 0.017 | 0.211 ± 0.067
SAGGMLKVEVIEVPPDEVGPEKLRAEIKAKYPDVEVRFETLPDGTLRVTVEIPVPEEPSKPLPLEKKSAGGS [r16_535_JUSTAS] | 0.743 ± 0.077 | 0.482 ± 0.3
